From PMC2562019
Where two headings read alike, the source gives them in different places.

Key:
[1] = molecular target: Recombinant HGF receptor (c-met)/fc chimera (UniProt P08581); assay: SPR; Biacore 2000, 25°C; c-Met/Fc chimera amine-coupled to a CM5 chip; medium conditioned by a healthy donor's blood (endogenous HGF, positive control) injected
[2] = molecular target: Recombinant HGF receptor (c-met)/fc chimera (UniProt P08581); assay: SPR; Biacore 2000, 25°C; c-Met/Fc chimera amine-coupled to a CM5 chip; supernatant of buffy coat (before or after haemolysis by freezing) or serum of one donor, diluted 1:20 in PBS pH 7.4
[3] = molecular target: Recombinant HGF receptor (c-met)/fc chimera (UniProt P08581); assay: SPR; Biacore 2000, 25°C; c-Met/Fc chimera amine-coupled to a CM5 chip; medium conditioned by a healthy donor's blood (endogenous HGF, positive control) injected; remark: listed apart in the source
[4] = molecular target: Recombinant HGF receptor (c-met)/fc chimera (UniProt P08581); assay: SPR; Biacore 2000, 25°C; c-Met/Fc chimera amine-coupled (EDC/NHS) to a CM5 chip (22113 or 22377 RU); reconstituted rHGF injected at the stated concentrations; response read after the end of the injection (dissociation phase)

Sequence of UniProt P08581 (P08581 25-932, change not shown): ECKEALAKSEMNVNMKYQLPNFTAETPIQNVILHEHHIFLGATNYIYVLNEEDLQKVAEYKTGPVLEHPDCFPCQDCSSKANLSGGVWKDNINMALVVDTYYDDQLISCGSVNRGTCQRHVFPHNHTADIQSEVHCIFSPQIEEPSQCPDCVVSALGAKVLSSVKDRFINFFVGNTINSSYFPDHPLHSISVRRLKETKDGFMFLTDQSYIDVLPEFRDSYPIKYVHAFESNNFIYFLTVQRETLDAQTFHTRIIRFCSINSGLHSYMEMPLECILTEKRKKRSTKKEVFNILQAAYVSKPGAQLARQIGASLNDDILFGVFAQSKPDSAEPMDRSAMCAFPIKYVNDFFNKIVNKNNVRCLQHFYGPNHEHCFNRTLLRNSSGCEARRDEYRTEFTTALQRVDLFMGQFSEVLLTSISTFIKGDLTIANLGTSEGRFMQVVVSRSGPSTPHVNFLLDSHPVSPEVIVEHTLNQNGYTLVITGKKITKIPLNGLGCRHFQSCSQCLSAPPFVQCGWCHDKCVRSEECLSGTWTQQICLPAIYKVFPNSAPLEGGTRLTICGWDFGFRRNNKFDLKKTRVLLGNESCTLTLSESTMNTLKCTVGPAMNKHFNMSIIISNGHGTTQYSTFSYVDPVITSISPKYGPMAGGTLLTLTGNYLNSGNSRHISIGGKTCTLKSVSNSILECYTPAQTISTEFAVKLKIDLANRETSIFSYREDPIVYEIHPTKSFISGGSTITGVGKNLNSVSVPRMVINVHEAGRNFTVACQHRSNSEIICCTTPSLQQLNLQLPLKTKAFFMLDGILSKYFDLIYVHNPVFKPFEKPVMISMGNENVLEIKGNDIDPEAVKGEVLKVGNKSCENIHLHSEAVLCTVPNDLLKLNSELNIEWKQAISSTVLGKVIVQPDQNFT

Endogenous HGF from human blood (ligand)
SPR response [1]: 209 RU | SPR response, buffy coat supernatant 1:20 [2]: 247 RU | SPR response, haemolysed buffy coat 1:20 [2]: 163 RU | SPR response, serum 1:20 [2]: 317 RU | SPR response [3]: 403 RU

Recombinant human hepatocyte growth factor, lot GJ175031 (from UniProt P14210 32-728) (ligand)
SPR response at 0.8 μg/ml [4]: 120 RU | SPR response at 4 μg/ml [4]: 201 RU | SPR response at 5 μg/ml [4]: 265 RU

Recombinant HGF, R&D carrier-free, lot GJ174034 (from UniProt P14210 32-728) (ligand)
SPR response at 2.5 μg/ml after 15 h at room temperature [4]: 181 RU | SPR response at 2.5 μg/ml after 15 h at −20°C and thawing [4]: 94 RU | SPR response at 2.5 μg/ml, freshly reconstituted [4]: 194 RU
